Molecular target: BB2
Assay: SEC-MALS

stoichiometry N: 4
Substance: BB2
